According to publication PMC8799657 (Nature Communications, 2022):

B1: Fab fragment of the mouse/human chimeric 128.1 IgG1 antibody (Fab, V domains shown)
VH: EVQLQQSGPELVKPGASMKISCKASGYSFTGYTMNWVKQSHGENLEWIGRINPHNGGTDYNQKFKDKAPLTVDKSSNTAYMELLSLTSGDSAVYYCARGYYYYSLDYWGQGTSVTVSS
VL: QIVLTQSPAIMSVSPGEKVTMTCSASSSIRYIHWYQQRPGTSPKRWIYDTSNLASGVPARFSGSGSGTSYSLTISSMEAEDAATYYCHQRNSYPWTFGGGTRLEIR
notes: also called Fab ch128.1/IgG1; ch128.1 Fab
B2: mouse/human chimeric IgG1/κ antibody ch128.1/IgG1 (antibody, V domains shown)
VH: EVQLQQSGPELVKPGASMKISCKASGYSFTGYTMNWVKQSHGENLEWIGRINPHNGGTDYNQKFKDKAPLTVDKSSNTAYMELLSLTSGDSAVYYCARGYYYYSLDYWGQGTSVTVSS
VL: QIVLTQSPAIMSVSPGEKVTMTCSASSSIRYIHWYQQRPGTSPKRWIYDTSNLASGVPARFSGSGSGTSYSLTISSMEAEDAATYYCHQRNSYPWTFGGGTRLEIR

What was measured:
[1] = target: T1, soluble human transferrin receptor 1 (human, UniProt P02786); assay: BLI; conditions: both partners purified
T1 construct: also called sTfR1; human sTfR1
T1 sequence (P02786 121-760): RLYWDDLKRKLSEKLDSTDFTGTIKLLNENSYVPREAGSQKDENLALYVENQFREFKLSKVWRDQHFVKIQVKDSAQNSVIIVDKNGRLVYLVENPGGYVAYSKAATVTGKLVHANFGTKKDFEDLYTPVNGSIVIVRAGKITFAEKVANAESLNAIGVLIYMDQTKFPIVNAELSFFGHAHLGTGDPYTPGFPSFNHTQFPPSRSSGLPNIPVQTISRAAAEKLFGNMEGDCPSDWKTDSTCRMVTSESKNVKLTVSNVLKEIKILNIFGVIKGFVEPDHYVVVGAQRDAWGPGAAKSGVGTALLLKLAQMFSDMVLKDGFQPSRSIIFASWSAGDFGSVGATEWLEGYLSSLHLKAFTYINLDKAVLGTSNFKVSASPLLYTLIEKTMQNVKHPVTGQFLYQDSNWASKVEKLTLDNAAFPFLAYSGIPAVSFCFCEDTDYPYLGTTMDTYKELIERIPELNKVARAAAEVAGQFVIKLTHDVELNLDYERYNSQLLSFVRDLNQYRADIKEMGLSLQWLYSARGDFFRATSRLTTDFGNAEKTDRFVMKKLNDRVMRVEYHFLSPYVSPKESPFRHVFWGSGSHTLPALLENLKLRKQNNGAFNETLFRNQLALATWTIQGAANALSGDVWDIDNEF

[2] = target: T2, human transferrin receptor 1 on the cell surface (human (endogenous in erythroblasts), UniProt P02786); conditions: one partner purified
T2 construct: also called hTfR1; TfR1
T2 sequence (P02786 whole entry): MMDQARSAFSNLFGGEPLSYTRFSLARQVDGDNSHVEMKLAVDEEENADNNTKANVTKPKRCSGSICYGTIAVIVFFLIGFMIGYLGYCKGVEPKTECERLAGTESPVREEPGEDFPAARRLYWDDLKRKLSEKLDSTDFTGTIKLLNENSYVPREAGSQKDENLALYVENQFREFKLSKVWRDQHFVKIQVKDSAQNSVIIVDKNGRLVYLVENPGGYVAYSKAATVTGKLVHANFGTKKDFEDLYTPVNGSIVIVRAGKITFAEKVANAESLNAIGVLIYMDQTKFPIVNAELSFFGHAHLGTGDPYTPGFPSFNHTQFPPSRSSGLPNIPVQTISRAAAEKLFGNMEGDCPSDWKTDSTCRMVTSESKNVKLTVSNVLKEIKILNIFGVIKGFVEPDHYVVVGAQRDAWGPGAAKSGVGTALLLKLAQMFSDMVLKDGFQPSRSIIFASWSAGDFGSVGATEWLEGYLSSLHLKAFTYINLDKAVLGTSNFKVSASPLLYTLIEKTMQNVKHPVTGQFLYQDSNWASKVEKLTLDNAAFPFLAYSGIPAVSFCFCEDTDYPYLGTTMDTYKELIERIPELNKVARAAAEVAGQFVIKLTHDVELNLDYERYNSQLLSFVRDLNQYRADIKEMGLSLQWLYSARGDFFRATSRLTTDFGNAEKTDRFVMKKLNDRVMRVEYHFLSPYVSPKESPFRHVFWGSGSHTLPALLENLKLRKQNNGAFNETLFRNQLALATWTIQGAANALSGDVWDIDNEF

Binder | binding result [1] | binding result [2]
B1 | binds | –
B2 | – | binds
